Experimental data as given in article PMC11510448.

Legend:
[1] = target: human Cu/Zn Superoxide Dismutase 1, A4V variant (Flag-SOD1-6His) (human) (UniProt P00441); experiment: SEC; gel filtration of the Ni-NTA eluate on a custom-made calibrated Sephacryl S-200 column (1.2 x 100 cm), TBS pH 7.4, UV detection at 280 nm
[2] = target: human Cu/Zn Superoxide Dismutase 1, A4V variant (Flag-SOD1-6His) (human) (UniProt P00441); experiment: native gel or EMSA; Native-PAGE of selected gel filtration fractions, SDS-free 10% gel, samples not boiled, run at RT, Coomassie stain; ESTDZ2 (ca. 28 kDa) as size standard

- stoichiometry N [1]: 2
- stoichiometry N [2]: 2
Substance: human Cu/Zn Superoxide Dismutase 1, A4V variant (Flag-SOD1-6His) (from UniProt P00441 6-154) (enzyme)
